Laboratory results as given in patent US20110009597A1, “RECOMBINANT GANODERMA LUCIDIUM IMMUNOMODULATORY PROTEIN (rLZ-8) AND USES THEREOF” (priority 2008, published 2011).

Assays:
[1] = test system: Human Chronic Myelogenous Leukemia K562 Cells; assay: Lethal effect of rLZ-8 on K562 cells (MTT, OD570nm); format: cell-based
Protocol: After sterilization of rLZ-8, we prepared 6 concentrations using IMDM culture medium, which are respectively 3.125 μg·ml^−1, 6.25 μb·ml^−1, 12.5 μg·ml^−, 25 μg·ml^−1, 50 μg·ml^−1, 100 μg·ml^−1.
On 96-orifice culture plate, the pilot aperture plus K562 tumor cells 0.1 ml and rLZ-8 0.1 ml, rLZ-8 concentrations from low to high; negative control group plus K562 tumor cells and culture medium of the 0.1 ml respectively; positive drug control group arsenic trioxide As2O3; make six-aperture multipunches for each group. Placing in 37° C., 5% CO2 incubator 48 h, adding MTT15 μl (5 mg ml^−1) prior to the termination of 4 h, after the termination of cell culture by adding 100 μl 0.1 mol L^−1 hydrochloric acid isopropyl alcohol, testing OD values570nm on the enzyme immunosorbent detector.

HL-60 = assay: Annexin V-FITC flow cytometry, apoptosis of HL-60; format: cell-based; details: Annexin V/PI
Protocol: FACS Calibur flow cytometry, U.S. Becton-Dickinson.Coompany. NB4, HL-60. rLZ-8 is prepared with IMDM culture medium containing 2% FCS into the preparation of 0.1 μg·ml^−1, 0.5 μg·ml^−1, 2.5 μg·ml^−1, arsenic trioxide (As2O3) 0.5 μg·ml^−1 AnnexinV-FITC kit: combining buffer solution 4×; Propidium iodide solution (PI), 20 μg·ml−1, 0.2 ml; recombinant human Annexin V/FITC, 0.1 ml.
Establish NB4 normal control group, positive drug group (As2O3 0.5 μg·ml^−1), protein low-dose group (0.1 μg·ml^−1), medium-dose group (0.5 μg·ml^−1), high-dose group, (2.5 μg·ml^−1); establish HL-60 normal control group, protein low-dose group (0.1 μg·ml^−1), medium-dose group (0.5 μg·ml^−1), high-dose group, (2.5 μg·ml^−1).
Mix NB4 and HL-60 cell into 24-orifice plate respectively, 1 ml/hole supply rLZ-8 in different concentrates, set 3-orifice multipunches for each group. Put them in 37° C., 5% CO2 incubator for 24 h, collect the cells of each concentrate, washes the cells twice with pre-cooled PBS 4° C., with 250 μl binding buffer solution re-suspending cells and regulates the cell density to 1×10^6/ml, taking out 100 μl to 5 ml streaming tube, and add 5 μl Annexin V/FITC and 10 μl 20 μg·ml^−1 PI solution, after mixing put it in room temperature and lucifuged hatching 15 min, add 400 μl PBS by flow cytometry analysis.

[2] = test system: mouse peritoneal S180 tumor cells; assay: S180 ascites tumor inhibition experiment; format: in vivo, Mice; details: rLZ-8 0.25-1 mg·kg^−1 tail venous injection, 10 days
Protocol: Treatment after 24 h of vaccination. […] Daily weighing, observe the weight changes of mice, drawing weight growth curves.

WBC = assay: Cyclophosphamide low-leucocyte rat model, WBC; format: in vivo, rats; parameters: unit not given here
Protocol: rLZ-8 preparation of sterile saline. Divide them into 20 μg·kg^−1, 10 μg·kg^−1, 5 μg·kg^−1, 2.5 μg·kg^−1, 1.25 μg·kg^−1, 0.625 μg·kg^−1, 0.31 μg·kg^−1 dose groups.
Genlei™ Scimax™ [Recombinant human granulocyte colony-stimulating factor injection (rhG-CSF)], production lot: 20060403; 75 μg/vial is prepared with sterile normal saline into the preparation of 9.45 μg·ml^−1, 0.1 ml/vial.
Cyclophosphamide (CP), the production lot number 050216; 200 mg/vial is prepared with sterile normal saline into the preparation of 20 mg·ml^−1, 0.1 ml/vial, namely, 49 mg·kg^−1.
Normal control group, protein low-dose group, protein medium-dose group, protein high-dose group, positive control group (Genlei™ Scimax™)
Excluding the normal control group (given same normal saline), each group of rats were given tail vein injection of cyclophosphamide, 20 mg·ml^−1, 0.1 ml/vial, for 3 consecutive days. On 3rd day, rat tail venous blood sampling, sent to Jilin University First Hospital laboratory, cell analyze the number of WBC. After successful modeling, they were given to the above groups respective dose of rLZ-8 and positive drugs (Genlei™ Scimax™) treatment, the normal control group and CP groups were given same normal saline, on the 3rd, 7th and 14th day of the treatment to draw venous blood from rats tail respectively, sent to Jilin University First Hospital testing the numbers of WBC. Compare WBC changes before and after the treatment for analysis of drug efficacy.

B1: rLZ-8: Recombinant Ganoderma Lucidum Immune Regulatory Protein expressed in Pichia pastoris (protein, UniProt P14945 2-111, looked up)
Immunomodulatory protein Ling …: SDTALIFRLAWDVKKLSFDYTPNWGRGNPNNFIDTVTFPKVLTDKAYTYRVAVSGRNLGVKPSYAVESDGSQKVNFLEYNSGYGIADTNTIQVFVVDPDTNNDFIIAQWN
lethal effect in vitro on K562 tumor cells (in words) ([1]; 3.125-100 μg·ml^−1): strong lethal effect
Growth inhibition rate (%) ([1]; rLZ-8 3.125 μg ml^−1, 48 h): 34.7%
OD570 nm ([1]; rLZ-8 3.125 μg ml^−1, 48 h): 0.66 ± 0.03
Growth inhibition rate (%) ([1]; rLZ-8 6.25 μg ml^−1, 48 h): 42.6%
OD570 nm ([1]; rLZ-8 6.25 μg ml^−1, 48 h): 0.58 ± 0.03
Growth inhibition rate (%) ([1]; rLZ-8 12.5 μg ml^−1, 48 h): 48.5%
OD570 nm ([1]; rLZ-8 12.5 μg ml^−1, 48 h): 0.52 ± 0.05
Growth inhibition rate (%) ([1]; rLZ-8 25 μg ml^−1, 48 h): 69.3%
OD570 nm ([1]; rLZ-8 25 μg ml^−1, 48 h): 0.31 ± 0.02
Growth inhibition rate (%) ([1]; rLZ-8 50 μg ml^−1, 48 h): 75.2%
OD570 nm ([1]; rLZ-8 50 μg ml^−1, 48 h): 0.25 ± 0.04
Growth inhibition rate (%) ([1]; rLZ-8 100 μg ml^−1, 48 h): 81.2%
OD570 nm ([1]; rLZ-8 100 μg ml^−1, 48 h): 0.19 ± 0.03
Apoptosis rate (HL-60; HL-60, rLZ-8 0.1 μg·ml−1, 24 h): 30.5%
Apoptosis rate (HL-60; HL-60, rLZ-8 0.5 μg·ml−1, 24 h): 40.7%
Apoptosis rate (HL-60; HL-60, rLZ-8 2.5 μg·ml−1, 24 h): 47.7%
growth of peritoneal S180 tumor cells (body weight curve) [2]: inhibited mouse peritoneal S180 tumor cells growth
WBC, 3rdday of medication (WBC; rLZ-8 0.31 μg·kg−1): 1.9 ± 0.17
WBC, 7thday of medication (WBC; rLZ-8 0.31 μg·kg−1): 13.5 ± 0.13
WBC, 14thday of medication (WBC; rLZ-8 0.31 μg·kg−1): 11.0 ± 0.31
WBC, 3rdday of medication (WBC; rLZ-8 0.62 μg·kg−1): 5.2 ± 0.14
WBC, 7thday of medication (WBC; rLZ-8 0.62 μg·kg−1): 12.8 ± 0.74
WBC, 14thday of medication (WBC; rLZ-8 0.62 μg·kg−1): 12.1 ± 0.24
WBC, 3rdday of medication (WBC; rLZ-8 1.25 μg·kg−1): 2.8 ± 0.12
WBC, 7thday of medication (WBC; rLZ-8 1.25 μg·kg−1): 11.0 ± 0.47
WBC, 14thday of medication (WBC; rLZ-8 1.25 μg·kg−1): 10.3 ± 0.45
WBC, 3rdday of medication (WBC; rLZ-8 2.5 μg·kg−1): 1.7 ± 0.18
WBC, 7thday of medication (WBC; rLZ-8 2.5 μg·kg−1): 12.8 ± 0.11
WBC, 14thday of medication (WBC; rLZ-8 2.5 μg·kg−1): 10.6 ± 0.29
WBC, 3rdday of medication (WBC; rLZ-8 5 μg·kg−1): 2.6 ± 0.64
WBC, 7thday of medication (WBC; rLZ-8 5 μg·kg−1): 17.6 ± 0.23
WBC, 14thday of medication (WBC; rLZ-8 5 μg·kg−1): 11.2 ± 0.26
WBC, 3rdday of medication (WBC; rLZ-8 10 μg·kg−1): 1.6 ± 0.71
WBC, 7thday of medication (WBC; rLZ-8 10 μg·kg−1): 15.8 ± 0.33
WBC, 14thday of medication (WBC; rLZ-8 10 μg·kg−1): 10.9 ± 0.21
WBC, 3rdday of medication (WBC; rLZ-8 20 μg·kg−1): 1.6 ± 0.33
WBC, 7thday of medication (WBC; rLZ-8 20 μg·kg−1): 15.8 ± 0.13
WBC, 14thday of medication (WBC; rLZ-8 20 μg·kg−1): 9.8 ± 0.19
